Measured values as given in patent US20250312416A1, “METHOD AND PHARMACEUTICAL COMPOSITION FOR CARTILAGE REGENERATION” (FAR EASTERN MEMORIAL HOSPITAL, priority 2024, published 2025).

Columns and labels:
ADSC spheroids = experiment: Immunofluorescence / confocal microscopy of chondrogenic proteins in ADSC spheroids; assay type: cell-based, human; settings: ADSC spheroids, 7 days
Protocol: Both side views (observed in the x and z plane) and bottom views (observed in the […]) of the images are provided. The scale bar is set at 500 μm.
ADSCs were treated with CXCL14-P, CXCL14-P1, or CXCL14-P2, respectively, at a concentration of 10 ng for 24 hours, after which the medium was replaced with fresh peptide-free medium. On day 7, total RNA was extracted, and real-time PCR analysis was performed to assess the expression levels of key chondrogenic markers, including ACAN, COL2A1, SOX9, and COMP. Gene expression levels were quantified using a LightCycler system (Roche Applied Science), with fold changes calculated relative to untreated control ADSCs. […] Immunofluorescence staining was performed to detect Collagen Type II, SOX9, COMP, and nuclei (Hoechst 33342) in 3D ADSC spheroids (middle panel).
(FIG. 3). […] Moreover, fluorescence confocal microscopy was employed to detect protein patterns and confirm the levels of SOX9, type II collagen, and aggrecan proteins in ADSC spheroids. […] Finally, to investigate whether the CXCR4 receptor of CXCL12/CXCL14 confers chondrogenic signaling during chondrogenesis, we treated ADSCs with a CXCR4 agonist for 7 days.
Extracellular vesicles (EVs) derived from MSCs hold significant potential for repairing damaged tissues. In this study, we explored whether EVs from ADSCs could effectively enhance chondrogenesis and promote cartilage repair. Immunofluorescence staining was used to assess protein levels of Collagen Type II (green), SOX9 (red), COMP (indigo), and Hoechst 33342 (gray) in 3D ADSC spheroids treated with MSC-EVs derived from CXCL14 peptide-primed ADSCs (CXCL14-P-MSC-EVs) at various time points. […] To further explore the cartilage repair functions of EVs from CXCL14-P-treated ADSCs and the encapsulation of the transcription factor SOX9 within MSCs and purified EVs, we performed in vivo studies.

[1] = test system: tibial articular cartilage of WT mice after ACLT; experiment: ACLT-induced OA mouse model, Safranin O / collagen II staining and OARSI score (CXCL14 protein); assay type: in vivo; settings: for OARSI score: ACLT group 5.5, sham group 0.17
[2] = test system: IPFP-MSC spheroids from OA patients; experiment: Fluorescence confocal microscopy of IPFP-MSC spheroids (SOX9, type II collagen, aggrecan); assay type: cell-based, human; settings: MSC spheroids during chondrogenesis, 7 days
Protocol: (§1) The GSE140861 microarray database was used for analyzing the potential genes from human bone marrow cells at different time points during chondrogenesis. Whole-genome expression analysis was carried out using Illumina (CA) Human Ref-8v3 or Human HT-12 v4 BeadArrays™. It was first selected the secreted protein from this database and further verified the functions of the candidate genes. The numbers of significant differences in gene expressions of different time points from human bone marrow stem cells during chondrogenesis. […] Alcian blue staining analyzed the chondrogenic differentiation of pellets with varying ratios of IPFP-MSC. CXCL14 increased the GAG deposition in IPFP-MSC during chondrogenesis on day 3. FIG. 1C provides the fluorescence confocal microscopy images showing IPFP-MSC spheroids from OA patients treated with CXCL14 for 7 days; wherein the nuclei were stained with DAPI (blue), and merged images display SOX9 (red), type II collagen (green), and aggrecan (light blue) labeling. […] The chondrogenic progenitor cells in the human IPFP-MSC from OA patients were detected using SOX9 and Collagen type II biomarkers. MSCs were assessed by flow cytometry for SOX9 and Collagen type II biomarkers indicative of human MSCs on day 1. In addition, Alcian blue staining analyzed the chondrogenic differentiation of pellets with IPFP-MSC. […]

[3] = test system: IPFP-MSC from OA patients; experiment: Alcian blue staining of chondrogenic pellets (GAG), IPFP-MSC; assay type: cell-based, human; settings: IPFP-MSC during chondrogenesis, day 3
Protocol: as §1

B1: CXCL14: small cytokine belonging to the CXC chemokine family, also known as BRAK; used as recombinant protein (protein, UniProt O95715 35-111, looked up)
C-X-C motif chemokine 14: SKCKCSRKGPKIRYSDVKKLEMKPKYPHCEEKMVIITTKSVSRYRGQEHCLHPKLQSTKRFIKWYNAWNEKRRVYEE
expression of SOX9, type II collagen, and aggrecan (ADSC spheroids): notably induced
OARSI score ([1]; CXCL14 10 ng): 2.7
OARSI score ([1]; CXCL14 20 ng): 1
cartilage repair (staining GAG content and type II collagen) ([1]; dose-dependent, ACLT-induced OA): can stimulate cartilage repair
levels of SOX9, type II collagen, and aggrecan [2]: elevated levels
GAG deposition (Alcian blue) [3]: increased
